pIC50, pKd: −log10 of the molar value.
Assays:
[1] = target: HLA-A*11:01; assay: IEDB peptide-MHC binding, purified MHC/direct/fluorescence; filed as Kd, often an IC50 or EC50 that approximates it; ≥ and ≤ were set here for values at or beyond the usual limits of such assays
[2] = target: HLA-A*69:01; assay: as above
[3] = target: HLA-A*02:01; assay: as above
[4] = target: HLA-B*40:01; assay: as above
[5] = target: HLA-B*15:01; assay: as above
[6] = target: HLA-B*08:01; assay: as above
[7] = target: HLA-A*01:01; assay: as above
[8] = target: HLA-B*44:02; assay: as above
[9] = target: HLA-B*58:01; assay: as above
[10] = target: HLA-B*07:02; assay: as above
[11] = target: HLA-A*31:01; assay: as above
[12] = target: HLA-B*27:05; assay: as above
[13] = target: HLA-A*26:01; assay: as above
[14] = target: HLA-A*03:01; assay: as above
[15] = target: HLA-B*15:01; assay: IEDB peptide-MHC binding, purified MHC/competitive/fluorescence; ≥ and ≤ were set here for values at or beyond the usual limits of such assays; conditions: source organism: Zaire ebolavirus
[16] = target: HLA-A*24:02; assay: as above; conditions: source organism: Zaire ebolavirus
[17] = target: HLA-B*51:01; assay: IEDB peptide-MHC binding, purified MHC/competitive/radioactivity; filed as Kd, often an IC50 or EC50 that approximates it; ≥ and ≤ were set here for values at or beyond the usual limits of such assays; conditions: source organism: Dengue virus 3 Martinique/1243/1999
[18] = target: HLA-B*07:02; assay: as above; conditions: source organism: Dengue virus 3 Martinique/1243/1999
[19] = target: HLA-A*24:03; assay: IEDB peptide-MHC binding, purified MHC/direct/fluorescence; filed as Kd, often an IC50 or EC50 that approximates it; ≥ and ≤ were set here for values at or beyond the usual limits of such assays; conditions: source organism: Pseudomonas aeruginosa UCBPP-PA14
[20] = target: HLA-A*02:01; assay: IEDB peptide-MHC binding, purified MHC/competitive/radioactivity; filed as Kd, often an IC50 or EC50 that approximates it; ≥ and ≤ were set here for values at or beyond the usual limits of such assays
[21] = target: HLA-A*02:06; assay: as above
[22] = target: HLA-A*68:02; assay: as above
[23] = target: HLA-A*02:03; assay: as above
[24] = target: HLA-A*02:02; assay: as above
[25] = target: HLA-A*26:01; assay: as above
[26] = target: HLA-B*53:01; assay: as above; conditions: source organism: Dengue virus 4 Philippines/H241/1956
[27] = target: HLA-A*02:01; assay: IEDB peptide-MHC binding, purified MHC/competitive/fluorescence; ≥ and ≤ were set here for values at or beyond the usual limits of such assays; conditions: source organism: Zaire ebolavirus
[28] = source organism: Vibrio cholerae
[29] = source organism: Pseudomonas aeruginosa UCBPP-PA14
[30] = source organism: Shigella flexneri
[31] = source organism: Dengue virus 3 Sri Lanka/1266/2000
[32] = source organism: Dengue virus 4 Philippines/H241/1956
[33] = source organism: Trypanosoma cruzi

Sequence: AENKKFKLH
- pKd [1, 28]: ≤ 4.70
- pKd [2, 28]: ≤ 4.70
- pKd [3, 28]: ≤ 4.70
- pKd [4, 28]: 5.57
- pKd [5, 28]: ≤ 4.70
- pKd [6, 28]: ≤ 4.70
- pKd [7, 28]: ≤ 4.70
- pKd [8, 28]: ≤ 4.70
- pKd [9, 28]: ≤ 4.70
- pKd [10, 28]: ≤ 4.70
- pKd [11, 28]: ≤ 4.70
- pKd [12, 28]: ≤ 4.70
- pKd [13, 28]: ≤ 4.70
- pKd [14, 28]: ≤ 4.70

Sequence: AKHGEYAPF
- pIC50 [15]: ≤ 4.11
- pIC50 [16]: 4.20

Sequence: APIQDEERDI
- pKd [17]: ≤ 4.16
- pKd [18]: 5.30

Sequence: ASDDLEHWQ
- pKd [1, 29]: ≤ 4.70
- pKd [2, 29]: ≤ 4.70
- pKd [3, 29]: ≤ 4.70
- pKd [4, 29]: ≤ 4.70
- pKd [5, 29]: ≤ 4.70
- pKd [6, 29]: ≤ 4.70
- pKd [7, 29]: ≤ 4.70
- pKd [9, 29]: ≤ 4.70
- pKd [10, 29]: ≤ 4.70
- pKd [11, 29]: ≤ 4.70
- pKd [19]: ≤ 4.70
- pKd [12, 29]: ≤ 4.70
- pKd [13, 29]: ≤ 4.70
- pKd [14, 29]: ≤ 4.70

Sequence: AVSGGLNTSV
- pKd ([20]; source organism: Lassa virus Josiah): ≤ 4.60

Sequence: DMKKKMEDSV
- pKd ([20]; source organism: Homo sapiens): 4.82
- pKd ([21]; source organism: Homo sapiens): ≤ 4.14

Sequence: DRLHPPNKL
- pKd [1, 30]: ≤ 4.70
- pKd [2, 30]: ≤ 4.70
- pKd [3, 30]: ≤ 4.70
- pKd [4, 30]: 5.37
- pKd [5, 30]: ≤ 4.70
- pKd [6, 30]: ≤ 4.70
- pKd [7, 30]: ≤ 4.70
- pKd [8, 30]: ≤ 4.70
- pKd [9, 30]: ≤ 4.70
- pKd [10, 30]: ≤ 4.70
- pKd [11, 30]: ≤ 4.70
- pKd [12, 30]: ≤ 4.70
- pKd [13, 30]: ≤ 4.70
- pKd [14, 30]: ≤ 4.70

Sequence: ELEKSKRAL
- pKd ([22]; source organism: Homo sapiens): ≤ 4.27

Sequence: ELNDRLAVYI
- pKd ([20]; source organism: Homo sapiens): 5.94
- pKd ([22]; source organism: Homo sapiens): 7.30
- pKd ([23]; source organism: Homo sapiens): 5.91
- pKd ([21]; source organism: Homo sapiens): ≤ 4.52
- pKd ([24]; source organism: Homo sapiens): 6.87

Sequence: ETYQLWTALV
- pKd [22, 31]: 10.15
- pKd [25, 31]: 7.25

Sequence: EVALLRTYCI
- pKd [22, 32]: 7.53
- pKd [25, 32]: 5.21

Sequence: FGMFTTNIW
- pKd [26]: 7.69

Sequence: FLSHDFTLV
- pKd [22, 33]: 6.20
- pKd [23, 33]: 9.85
- pKd [21, 33]: 9.12
- pKd [24, 33]: 10.21

Sequence: FVEGVSGGAW
- pKd [26]: 6.68

Sequence: GIGILTVIL
- pKd ([20]; source organism: Homo sapiens): 6.00

Sequence: GITRPTTVV
- pKd [20, 33]: ≤ 4.29
- pKd [22, 33]: 5.50
- pKd [23, 33]: 6.10
- pKd [21, 33]: 5.21
- pKd [24, 33]: 4.85

Sequence: GQQFYWPVM
- pIC50 [27]: 5.24
- pIC50 [15]: 5.82
- pIC50 [16]: 6.94

Sequence: GSFGDIYLA
- pKd ([20]; source organism: Homo sapiens): 6.63

Sequence: GVPPKVVNY
- pIC50 [27]: ≤ 3.70
- pIC50 [15]: ≤ 3.68

Sequence: HMMKDEPVV
- pIC50 [27]: 5.06
- pIC50 [15]: 4.33

Sequence: HTIENTSANL
- pKd [22, 32]: 7.82
- pKd [25, 32]: ≤ 4.31

— the Immune Epitope Database (IEDB)
